The supplement of paper PMC7877785
± gives the uncertainty stated by the source.

Experiment: self-splicing fitness, log relative to wild type (ln ratio); higher = more splicing; Tetrahymena group I intron in knt gene, E. coli kanamycin selection, DiMSum; sequences stand for … in CUCUCU…GGAGGGAAAAGUUAUCAGGCAUGCACCUGGUAGCUAGUCUUUAAACCAAUAGAUUGCAUCGGUUUAAAAGGCAAGACCGUCAAAUUGCGGGAAAGGGGUCAACAGCCGUUCAGUACCAAGUCUCAGGGGAAACUUUGAGAUGGCCUUGCAAAGGGUAUGGUAAUAAGCUGACGGACAUGGUCCUAACCACGCAGCCAAGUCCUAAGUCAACAGAUCUUCUGUUGAUAUGGAUGCAGUUCACAGACUAAAUGUCGGUCGGGGAAGAUGUAUUCUUCUCAUAAGAUAUAGUCGGACCUCUCCUUAAUGGGAGCUAGCGGAUGAAGUGAUGCAACACUGGAGCCGCUGGGAACUAAUUUGUAUGCGAAAGUAUAUUGAUUAGUUUUGGAGUACUCGUGGUCG
Summary of the method: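 Pooled colonies went to amplicon sequencing on an Illumina HiSeq 2500 after six replicate transformations. The plates were LB agar with 100 μg/mL carbenicillin, 50 μM IPTG and 0.2% rhamnose, with or without 25 μg/mL kanamycin, incubated overnight at 37°C or 30°C. The E. coli BL21(DE3) library had all eight P1ex-region intron nucleotides randomised, the intron placed in the knt kanamycin-resistance gene on pET-22b(+). DiMSum fitness is the error-weighted combination of replicate fold changes, kanamycin against none, normalised to wild type.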

Sequence	self-splicing fitness (ln) (30 °C)	self-splicing fitness (ln) (37 °C)
CCCUAGCAAUAUUACGCGUC	-3.35 ± 0.14	-3.21 ± 0.23
CCCUAGCAAUAUUACGCUGG	-4.39 ± 0.27	-2.89 ± 0.27
CCCUAGCAAUAUUACGGAAU	-3.36 ± 0.37	-1.82 ± 0.31
CCCUAGCAAUAUUACGGCCU	-2.9 ± 0.21	–
CCCUAGCAAUAUUACGGCGG	-2.6 ± 0.14	-2.42 ± 0.18
CCCUAGCAAUAUUACGGCUG	-2.46 ± 0.28	-1.38 ± 0.3
CCCUAGCAAUAUUACGGUUC	-3.92 ± 0.16	-2.04 ± 0.21
CCCUAGCAAUAUUACGGUUG	-3.3 ± 0.14	-2.04 ± 0.11
CCCUAGCAAUAUUACGUAGU	-3.63 ± 0.18	-2.51 ± 0.17
CCCUAGCAAUAUUACGUGUG	-4.41 ± 0.24	-2.43 ± 0.13
CCCUAGCAAUAUUACGUUAA	-3.42 ± 0.18	-3.16 ± 0.29
CCGAAGCAAUAUUACGAAAC	-3.12 ± 0.31	-2.46 ± 0.37
CCGAAGCAAUAUUACGACGU	-1.03 ± 0.08	0.0423 ± 0.092
CCGAAGCAAUAUUACGAGCU	-3.83 ± 0.27	-2.47 ± 0.19
CCGAAGCAAUAUUACGAGUC	-3.86 ± 0.21	-2.53 ± 0.19
CCGAAGCAAUAUUACGCAAG	-1.83 ± 0.17	-1.12 ± 0.17
CCGAAGCAAUAUUACGCAGG	-2.04 ± 0.12	–
CCGAAGCAAUAUUACGCCAU	-4.11 ± 0.27	-3.25 ± 0.21
CCGAAGCAAUAUUACGCGGG	-3.3 ± 0.19	-2.62 ± 0.24
CCGAAGCAAUAUUACGCUAG	-2.1 ± 0.18	-1.87 ± 0.22
CCGAAGCAAUAUUACGCUAU	–	-2.24 ± 0.25
CCGAAGCAAUAUUACGCUCU	-3.24 ± 0.4	–
CCGAAGCAAUAUUACGCUGU	-3.74 ± 0.32	-2.84 ± 0.4
CCGAAGCAAUAUUACGGAAU	-3.74 ± 0.19	-3 ± 0.24
CCGAAGCAAUAUUACGGAGG	-4.7 ± 0.31	-2.44 ± 0.21

Sequence	self-splicing fitness (ln) (30 °C)	self-splicing fitness (ln) (37 °C)
CCGAAGCAAUAUUACGGCCA	-2.76 ± 0.17	-2.3 ± 0.18
CCGAAGCAAUAUUACGGCUA	-2.89 ± 0.29	-1.64 ± 0.24
CCGAAGCAAUAUUACGGCUG	-1.53 ± 0.092	-0.38 ± 0.11
CCGAAGCAAUAUUACGGGUG	-0.732 ± 0.047	-0.639 ± 0.061
CCGAAGCAAUAUUACGGUAA	-1.62 ± 0.13	-3.15 ± 0.23
CCGAAGCAAUAUUACGGUUA	–	-2.08 ± 0.24
CCGAAGCAAUAUUACGUACC	-3.47 ± 0.16	-2.5 ± 0.21
CCGAAGCAAUAUUACGUAGC	-3 ± 0.33	–
CCGAAGCAAUAUUACGUAUA	–	-2.51 ± 0.41
CCGAAGCAAUAUUACGUCUA	-3.69 ± 0.35	-2.25 ± 0.3
CCGAAGCAAUAUUACGUUGC	-3.51 ± 0.21	-2.66 ± 0.22
CCGCAGCAAUAUUACGAAAA	-3.37 ± 0.21	-2.39 ± 0.16
CCGCAGCAAUAUUACGAACG	-0.44 ± 0.085	0.193 ± 0.1
CCGCAGCAAUAUUACGACCA	-3.34 ± 0.25	-1.95 ± 0.25
CCGCAGCAAUAUUACGAGCU	-2.93 ± 0.27	-3.37 ± 0.28
CCGCAGCAAUAUUACGAUAC	-2.77 ± 0.28	-2.19 ± 0.46
CCGCAGCAAUAUUACGAUCG	0.289 ± 0.083	0.186 ± 0.11
CCGCAGCAAUAUUACGCCUU	-3.2 ± 0.21	-2.08 ± 0.16
CCGCAGCAAUAUUACGCGAU	-3.44 ± 0.14	-3.44 ± 0.21
CCGCAGCAAUAUUACGCGCC	-2.71 ± 0.25	-2.02 ± 0.47
CCGCAGCAAUAUUACGCGGA	-3.03 ± 0.29	-3.11 ± 0.3
CCGCAGCAAUAUUACGCGUG	-2.75 ± 0.15	-2.38 ± 0.17
CCGCAGCAAUAUUACGCUCG	-1.9 ± 0.07	-1.41 ± 0.094
CCGCAGCAAUAUUACGGAAA	-3.75 ± 0.3	-3.29 ± 0.43
